Patent publication US20220195051A1 (UNIVERSIT T Z RICH, published 2022)

Molecular target: T1, human recombinant biotinylated FcRn (Immunitrack) (human, UniProt P55899 24-297, biotinylated (site not told))
T1 construct: Immobilised on a ProteOn NLC chip for SPR at pH 6.0; also called human FcRn; hFcRn
Assay: SPR, human FcRn immobilised, IL-12Fc variants in solution, pH 6.0
Method: SPR was performed using the ProteOn XPR36 System (Bio-Rad Laboratories, Inc.), coating human recombinant biotinylated FcRn (Immunitrack) on a ProteOn NLC sensor chip to approximately 80 response units (RU). […] The dissociation time was 600 s. Analysis was performed using the ProteOn Manager software (Bio-Rad Laboratories, Inc.) using data normalization to the injection time, interspot background removal and build-in artefact removal function. Kd were calculated using the equilibrium analysis model.

T1 sequence (P55899 24-297): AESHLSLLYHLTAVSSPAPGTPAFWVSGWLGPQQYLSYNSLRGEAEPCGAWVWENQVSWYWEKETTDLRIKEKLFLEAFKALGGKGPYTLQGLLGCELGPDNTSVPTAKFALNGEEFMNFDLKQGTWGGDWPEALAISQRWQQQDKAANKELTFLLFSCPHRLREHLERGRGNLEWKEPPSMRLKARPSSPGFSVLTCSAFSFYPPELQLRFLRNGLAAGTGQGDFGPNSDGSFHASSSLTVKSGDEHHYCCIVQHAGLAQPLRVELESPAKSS

B1: human IL-12Fc NHQ (Fc fusion)
chain: IWELKKDVYVVELDWYPDAPGEMVVLTCDTPEEDGITWTLDQSSEVLGSGKTLTIQVKEFGDAGQYTCHKGGEVLSHSLLLLHKKEDGIWSTDILKDQKEPKNKTFLRCEAKNYSGRFTCWWLTTISTDLTFSVKSSRGSSDPQGVTCGAATLSAERVRGDNKEYEYSVECQEDSACPAAEESLPIEVMVDAVHKLKYENYTSSFFIRDIIKPDPPKNLQLKPLKNSRQVEVSWEYPDTWSTPHSYFSLTFCVQVQGKSKREKKDRVFTDKTSATVICRKNASISVRAQDRYYSSSWSEWASVPCSRNLPVATPDPGMFPCLHHSQNLLRAVSNMLQKARQTLEFYPCTSEEIDHEDITKDKTSTVEACLPLELTKNESCLNSRETSFITNGSCLASRKTSFMMALCLSSIYEDLKMYQVEFKTMNAKLLMDPKRQIFLDQNMLAVIDELMQALNFNSETVPQKSSLEEPDFYKTKIKLCILLHAFRIRAVTIDRVMSYLNASKVDKRVESKYGPPCPPCPAPEFLGGPSVFLFPPKPKDTLMNSRTPEVTCVVVDVSQEDPEVQFNWYVDGVEVHNAKTKPREEQFNSTYRVVSVLTVLHQDWLNGKEYKCKVSNKGLPSSIEKTISKAKGQPREPQVYTLPPSPEEMTKNQVSLTCLVKGFYPSDIAVEWESNGQPENNYKTTPPVLDSDGSFFLYSRLTVDKSRWQEGNVFSCSVMHEALHNQYTQKSLSLSLGK
notes: mature; As m1 with I253N and H435Q (EU) in the Fc; also called NHQ variant; not shown: Gly-Ser-linker between p40 and p35
  fold reduction of affinity against IL-12Fc WT: ~8 fold
